± gives the standard deviation of the averaged measurements.
Tested on: ATP
Assay: switch fluorescence ratio, 500 uM ATP over buffer (Cy3 cluster intensity, sum of 5 cycles each) (fold (ratio)); higher = stronger signal-on switching upon ATP binding; sequences stand for … in TCGTCGGCAGCGTCAGATGTGTATAAGAGACAGTTTTTTTTTTTTTTTTTTTTTTTTT…TC
Conditions: aptamer strand: ATP DNA aptamer (quencher-CACCTGGGGGAGTATTGCGGAGGAAGG + anchor), 100 nM annealed; ATP concentration: 500 uM
Procedure, shortened: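 Clusters carrying Cy3-labelled switching strands on a modified Illumina MiSeq flow-cell were annealed to 100 nM quencher-labelled ATP aptamer and imaged in selection buffer. They were imaged again after 15 min with 500 uM ATP at 22 °C, over five buffer/ATP cycles with NaOH stripping and re-annealing in between. For each cluster, the fluorescence ratio is the summed Cy3 intensity of the target cycles divided by that of the buffer cycles, averaged per switch-domain sequence. Clusters outside 100-1000 RFU were left out.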
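Note: ATP exposure 15 min at 22 °C before imaging.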

## GGGTAATAAA
  switch fluorescence ratio: 1.019 ± 0.0052

## GGGTACCTGT
  switch fluorescence ratio: 1.01 ± 0.034

## GGGTACTAGT
  switch fluorescence ratio: 1.05 ± 0.023

## GGGTACTGAT
  switch fluorescence ratio: 1.01 ± 0.024

## GGGTACTTTT
  switch fluorescence ratio: 1 ± 0.0091

## GGGTAGAGGA
  switch fluorescence ratio: 0.99 ± 0.03

## GGGTAGAGTG
  switch fluorescence ratio: 1.006 ± 0.0019

## GGGTAGCTAT
  switch fluorescence ratio: 0.9739 ± 0.0049

## GGGTAGGGGC
  switch fluorescence ratio: 1.02 ± 0.026

## GGGTAGTGTA
  switch fluorescence ratio: 0.995 ± 0.012

## GGGTATAACG
  switch fluorescence ratio: 0.974 ± 0.035

## GGGTATAGTT
  switch fluorescence ratio: 0.992 ± 0.024

## GGGTATCGAG
  switch fluorescence ratio: 1.01 ± 0.019

## GGGTATGAGG
  switch fluorescence ratio: 0.976 ± 0.032

## GGGTATGCAA
  switch fluorescence ratio: 1.001 ± 0.0093

## GGGTATGCGA
  switch fluorescence ratio: 0.984 ± 0.015

## GGGTATGGAG
  switch fluorescence ratio: 1.02 ± 0.02

## GGGTATGGGA
  switch fluorescence ratio: 0.99 ± 0.017

## GGGTATGGGC
  switch fluorescence ratio: 0.955 ± 0.014

## GGGTATGTGA
  switch fluorescence ratio: 0.961 ± 0.037

## GGGTATTACT
  switch fluorescence ratio: 1.03 ± 0.017

## GGGTATTATA
  switch fluorescence ratio: 0.996 ± 0.03

## GGGTATTATG
  switch fluorescence ratio: 1.02 ± 0.028

## GGGTCAATAG
  switch fluorescence ratio: 1.42 ± 0.051

## GGGTCACGTT
  switch fluorescence ratio: 0.997 ± 0.032

## GGGTCAGACG
  switch fluorescence ratio: 1.06 ± 0.086

## GGGTCATTAA
  switch fluorescence ratio: 0.9905 ± 0.0088

## GGGTCCAGGG
  switch fluorescence ratio: 1.228 ± 0.0082

## GGGTCCTACG
  switch fluorescence ratio: 1.12 ± 0.037

## GGGTCGGATG
  switch fluorescence ratio: 1.03 ± 0.033

## GGGTCGGGGC
  switch fluorescence ratio: 1.02 ± 0.017

## GGGTCGGGGG
  switch fluorescence ratio: 0.994 ± 0.04

## GGGTCTAATT
  switch fluorescence ratio: 0.9917 ± 0.0014

## GGGTCTCGTT
  switch fluorescence ratio: 1.01 ± 0.013

## GGGTCTGACT
  switch fluorescence ratio: 0.9998 ± 0.0017

## GGGTCTGTAA
  switch fluorescence ratio: 1.42 ± 0.61

## GGGTCTTGGG
  switch fluorescence ratio: 0.9482 ± 0.008

## GGGTGAAACA
  switch fluorescence ratio: 0.987 ± 0.069

## GGGTGAAAGC
  switch fluorescence ratio: 1 ± 0.017

## GGGTGAACTC
  switch fluorescence ratio: 0.988 ± 0.031

## GGGTGACGAG
  switch fluorescence ratio: 1 ± 0.038

## GGGTGACGCG
  switch fluorescence ratio: 1.01 ± 0.022

## GGGTGATCCT
  switch fluorescence ratio: 1.02 ± 0.073

## GGGTGATGGG
  switch fluorescence ratio: 0.977 ± 0.032

## GGGTGCAGGC
  switch fluorescence ratio: 0.675 ± 0.032

## GGGTGCATAG
  switch fluorescence ratio: 1.03 ± 0.045

## GGGTGCCAGT
  switch fluorescence ratio: 0.963 ± 0.011

## GGGTGCCGGG
  switch fluorescence ratio: 0.911 ± 0.12

## GGGTGCCGTG
  switch fluorescence ratio: 1.03 ± 0.047

## GGGTGCGCGT
  switch fluorescence ratio: 0.977 ± 0.011

## GGGTGCGGAG
  switch fluorescence ratio: 0.956 ± 0.035

## GGGTGCGGCG
  switch fluorescence ratio: 0.968 ± 0.035

## GGGTGCTTTG
  switch fluorescence ratio: 1.02 ± 0.029

## GGGTGGAAAG
  switch fluorescence ratio: 0.984 ± 0.041

## GGGTGGCCTA
  switch fluorescence ratio: 1 ± 0.015

## GGGTGGCGCC
  switch fluorescence ratio: 0.988 ± 0.012

## GGGTGGGAGT
  switch fluorescence ratio: 1.026 ± 0.0097

## GGGTGGGATT
  switch fluorescence ratio: 0.986 ± 0.018

## GGGTGGGCGC
  switch fluorescence ratio: 1.01 ± 0.058

## GGGTGGGGAA
  switch fluorescence ratio: 0.963 ± 0.075

## GGGTGGGGTT
  switch fluorescence ratio: 0.991 ± 0.017

## GGGTGGTTGG
  switch fluorescence ratio: 0.999 ± 0.0088

## GGGTGTAATT
  switch fluorescence ratio: 1 ± 0.016

## GGGTGTACAA
  switch fluorescence ratio: 0.98 ± 0.019

## GGGTGTACGG
  switch fluorescence ratio: 1.04 ± 0.024

## GGGTGTATGG
  switch fluorescence ratio: 0.981 ± 0.012

## GGGTGTGAAC
  switch fluorescence ratio: 0.9859 ± 0.0046

## GGGTGTGGAC
  switch fluorescence ratio: 1.04 ± 0.023

## GGGTGTGGAG
  switch fluorescence ratio: 1.01 ± 0.012

## GGGTGTGGTA
  switch fluorescence ratio: 0.9967 ± 0.0096

## GGGTGTTCTG
  switch fluorescence ratio: 1.01 ± 0.018

## GGGTGTTGCT
  switch fluorescence ratio: 1 ± 0.017

## GGGTGTTTGG
  switch fluorescence ratio: 1.03 ± 0.026

## GGGTTAAGTT
  switch fluorescence ratio: 1 ± 0.027

## GGGTTAATAT
  switch fluorescence ratio: 1.04 ± 0.055

## GGGTTAATCT
  switch fluorescence ratio: 0.9983 ± 0.0016

Reference: the supplement of paper PMC10126150
